Measurements taken from FireProtDB.

B1: Phenylalanine--tRNA ligase, mitochondrial, O95363 (parent)
chain: MVGSALRRGAHAYVYLVSKASHISRGHQHQAWGSRPPAAECATQRAPGSVVELLGKSYPQDDHSNLTRKVLTRVGRNLHNQQHHPLWLIKERVKEHFYKQYVGRFGTPLFSVYDNLSPVVTTWQNFDSLLIPADHPSRKKGDNYYLNRTHMLRAHTSAHQWDLLHAGLDAFLVVGDVYRRDQIDSQHYPIFHQLEAVRLFSKHELFAGIKDGESLQLFEQSSRSAHKQETHTMEAVKLVEFDLKQTLTRLMAHLFGDELEIRWVDCYFPFTHPSFEMEINFHGEWLEVLGCGVMEQQLVNSAGAQDRIGWAFGLGLERLAMILYDIPDIRLFWCEDERFLKQFCVSNINQKVKFQPLSKYPAVINDISFWLPSENYAENDFYDLVRTIGGDLVEKVDLIDKFVHPKTHKTSHCYRITYRHMERTLSQREVRHIHQALQEAAVQLLGVEGRF
B2: Glutamate dehydrogenase, P96110 (parent)
chain: MPEKSLYEMAVEQFNRAASLMDLESDLAEVLRRPKRVLIVEFPVRMDDGHVEVFTGYRVQHNVARGPAKGGIRYHPDVTLDEVKALAFWMTWKTAVMNLPFGGGKGGVRVDPKKLSRNELERLSRRFFSEIQVIIGPYNDIPAPDVNTNADVMAWYMDTYSMNVGHTVLGIVTGKPVELGGSKGREEATGRGVKVCAGLAMDVLGIDPKKATVAVQGFGNVGQFAALLISQELGSKVVAVSDSRGGIYNPEGFDVEELIRYKKEHGTVVTYPKGERITNEELLELDVDILVPAALEGAIHAGNAERIKAKAVVEGANGPTTPEADEILSRRGILVVPDILANAGGVTVSYFEWVQDLQSFFWDLDQVRNALEKMMKGAFNDVMKVKEKYNVDMRTAAYILAIDRVAYATKKRGIYP
B3: E81Q|D148N, P95467 (parent)
chain: MKKALIASTALLLTAGVAAADVKISGYGRTGVIYYENDSDVNESRVQSRLRMNIDASSSTDSGVDFGARFRLQWDQGEEGEAQTNAGKLWVSAQGFTVEVGNVDTAFASNGLIYETGLGSYDRSVGFSAVTGAFFAYDSNGYGIDEVDRVGIRALYTLGDLTLQASYVDPDQSGTVIGVEEEFGFSVDYTWNERLELSAAAAFNGAGIDGNDIYFLGARYAVMDNARIGLNFVDAGDEEDGYDGKTIALYGDYTLADGRTNLEAYIANNDRDSNETDNAFGIGVNYDLGGARLGASLQRDYAENVTADFGVRFEF
B4: Guanyl-specific ribonuclease Sa, P05798 (parent)
chain: DVSGTVCLSALPPEATDTLNLIASDGPFPYSQDGVVFQNRESVLPTQSYGYYHEYTVITPGARTRGTRRIITGEATQEDYYTGDHYATFSLIDQTC

Variants of: B1
Details: Homo sapiens; pH 7.5; 25 °C; Urea; CD; Tris-HCl 50 mM; transition: 2; structure 3CMQ; whole UniProt chain shown

Row | Variant | ddG of mutation (higher = less stable) | denaturant midpoint (higher = more stable)
1 | MVGSALRRGAHAYVYLVSKASHISRGHQHQAWGSRPPAAECATQRAPGSVVELLGKCYPQDDHSNLTRKVLTRVGRNLHNQQHHPLWLIKERVKEHFYKQYVGRFGTPLFSVYDNLSPVVTTWQNFDSLLIPADHPSRKKGDNYYLNRTHMLRAHTSAHQWDLLHAGLDAFLVVGDVYRRDQIDSQHYPIFHQLEAVRLFSKHELFAGIKDGESLQLFEQSSRSAHKQETHTMEAVKLVEFDLKQTLTRLMAHLFGDELEIRWVDCYFPFTHPSFEMEISFHGEWLEVLGCGVMEQQLVNSAGAQDRIGWAFGLGLERLAMILYDIPDIRLFWCEDERFLKQFCVSNINQKVKFQPLSKYPAVINDISFWLPSENYAENDFYDLVRTIGGDLVEKVDLIDKFVHPKTHKTSHCYRITYRHMERTLSQREVRHIHQALQEAAVQLLGVEGRF [S57C N280S] | 3.03 kcal/mol | 7.9 M

Variants of: B2
Details: Thermotoga maritima (strain ATCC 43589 / DSM 3109 / JCM 10099 / NBRC 100826 / MSB8); pH 7.4; Thermal; DSC; Sodium phosphate 20 mM; reversible: no; structure 1B26; whole UniProt chain shown

Row | Variant | Tm
2 | MPEKSLYEMAVEQFNRAASLMDLESDLAEVLRRPKRVLIVEFPVRMDDGHVEVFTGYRVQHNVARGPAKGGIRYHPDVTLDEVKALAFWMTWKTAVMNLPFGGGKGGVRVDPKKLSRNELERLSRRFFREIQVIIGPYNDIPAPDVNTNADVMAWYMDEYEMNVGHTVLGIVTGKPVELGGSKGREEATGRGVKVCAGLAMDVLGIDPKKATVAVQGFGNVGQFAALLISQELGSKVVAVSDSRGGIYNPEGFDVEELIRYKKEHGTVVTYPKGERITNEELLELDVDILVPAALEGAIHAGNAERIKAKAVVEGANGPTTPEADEILSRRGILVVPDILANAGGVTVSYFEWVQDLQSFFWDLDQVRNALEKMMKGAFNDVMKVKEKYNVDMRTAAYILAIDRVAYATKKRGIYP [S129R T159E S161E] | 88 °C
3 | MPEKSLYEMAVEQFNRAASLMDLESDLAEVLRRPKRVLIVEFPVRMDDGHVEVFTGYRVQHNVARGPAKGGIRYHPDVTLDEVKALAFWMTWKTAVMNLPFGGGKGGVRVDPKKLSRNELERLSRRFFSEIQVIIGPYNDIPAPDVNTNADVMAWYMDEYSMNVGHTVLGIVTGKPVELGGSKGREEATGRGVKVCAGLAMDVLGIDPKKATVAVQGFGNVGQFAALLISQELGSKVVAVSDSRGGIYNPEGFDVEELIRYKKEHGTVVTYPKGERITNEELLELDVDILVPAALEGAIHAGNAERIKAKAVVEGANGPTTPEADEILSRRGILVVPDILANAGGVTVSYFEWVQDLQSFFWDLDQVRNALEKMMKGAFNDVMKVKEKYNVDMRTAAYILAIDRVAYATKKRGIYP [T159E] | 83.1 °C
4 | MPEKSLYEMAVEQFNRAASLMDLESDLAEVLRRPKRVLIVEFPVRMDDGHVEVFTGYRVQHNVARGPAKGGIRYHPDVTLDEVKALAFWMTWKTAVMNLPFGGGKGGVRVDPKKLSRNELERLSRRFFREIQVIIGPYNDIPAPDVNTNADVMAWYMDTYSMNVGHTVLGIVTGKPVELGGSKGREEATGRGVKVCAGLAMDVLGIDPKKATVAVQGFGNVGQFAALLISQELGSKVVAVSDSRGGIYNPEGFDVEELIRYKKEHGTVVTYPKGERITNEELLELDVDILVPAALEGAIHAGNAERIKAKAVVEGANGPTTPEADEILSRRGILVVPDILANAGGVTVSYFEWVQDLQSFFWDLDQVRNALEKMMKGAFNDVMKVKEKYNVDMRTAAYILAIDRVAYATKKRGIYP [S129R] | 87 °C
5 | MPEKSLYEMAVEQFNRAASLMDLESDLAEVLRRPKRVLIVEFPVRMDDGHVEVFTGYRVQHNVARGPAKGGIRYHPDVTLDEVKALAFWMTWKTAVMNLPFGGGKGGVRVDPKKLSRRELERLSRRFFREIQVIIGPYNDIPAPDVNTNADVMAWYMDEYEMNVGHTVLGIVTGKPVELGGSKGREEATGRGVKVCAGLAMDVLGIDPKKATVAVQGFGNVGQFAALLISQELGSKVVAVSDSRGGIYNPEGFDVEELIRYKKEHGTVVTYPKGERITNEELLELDVDILVPAALEGAIHAGNAERIKAKAVVEGANGPTTPEADEILSRRGILVVPDILANAGGVTVSYFEWVQDLQSFFWDLDQVRNALEKMMKGAFNDVMKVKEKYNVDMRTAAYILAIDRVAYATKKRGIYP [S129R T159E N118R S161E] | 88.3 °C
6 | MPEKSLYEMAVEQFNRAASLMDLESDLAEVLRRPKRVLIVEFPVRMDDGHVEVFTGYRVQHNVARGPAKGGIRYHPDVTLDEVKALAFWMTWKTAVMNLPFGGGKGGVRVDPKKLSRRELERLSRRFFREIQVIIGPYNDIPAPDVNTNADVMAWYMDEYSMNVGHTVLGIVTGKPVELGGSKGREEATGRGVKVCAGLAMDVLGIDPKKATVAVQGFGNVGQFAALLISQELGSKVVAVSDSRGGIYNPEGFDVEELIRYKKEHGTVVTYPKGERITNEELLELDVDILVPAALEGAIHAGNAERIKAKAVVEGANGPTTPEADEILSRRGILVVPDILANAGGVTVSYFEWVQDLQSFFWDLDQVRNALEKMMKGAFNDVMKVKEKYNVDMRTAAYILAIDRVAYATKKRGIYP [S129R T159E N118R] | 89.6 °C

Variants of: B3
Details: Paracoccus denitrificans; pH 8; Thermal; Absorbance; Tris-HCl 50 mM; NaCl 100 mM; reversible: no; whole UniProt chain shown

Row | Variant | Tm | change of melting temperature, mutant - wild type (higher = more stable)
7 | MKKALIASTALLLTAGVAAADVKISGYGRTGVIYYENDSDVNESRVQSRLRMNIDASSSTDSGVDFGARFRLQWDQGEEGQAQTNAGKLWVSAQGFTVEVGNVDTAFASNGLIYETGLGSYDRSVGFSAVTGAFFAYDSNGYGIDEVNRVGIRALYTLGDLTLQASYVDPDQSGTVIGVEEEFGFSVDYTWNERLELSAAAAFNGAGIDGNDIYFLGARYAVMDNARIGLNFVDAGDEEDGYDGKTIALYGDYTLADGRTNLEAYIANNDRDSNETDNAFGIGVNYDLGGARLGASLQRDYAENVTADFGVRFEF [E81Q D148N] | 82.3 °C | -3.9 °C
8 | MKKALIASTALLLTAGVAAADVKISGYGRTGVIYYENDSDVNESRVQSRLRMNIDASSSTDSGVDFGARFRLQWDQGEEGQAQTNAGKLWVSAQGFTVEVGNVDTAFASNGLIYETGLGSYDRSVGFSAVTGAFFAYDSNGYGIDEVDRVGIRALYTLGDLTLQASYVDPDQSGTVIGVEEEFGFSVDYTWNERLELSAAAAFNGAGIDGNDIYFLGARYAVMDNARIGLNFVDAGDEEDGYDGKTIALYGDYTLADGRTNLEAYIANNDRDSNETDNAFGIGVNYDLGGARLGASLQRDYAENVTADFGVRFEF [E81Q] | 84.2 °C | -2 °C
9 | MKKALIASTALLLTAGVAAADVKISGYGRTGVIYYENDSDVNESRVQSRLRMNIDASSSTDSGVDFGARFRLQCDQGEEGEAQTNAGKLWVSAQGFTVEVGNVDTAFASNGLIYETGLGSYDRSVGFSAVTGAFFAYDSNGYGIDEVDRVGIRALYTLGDLTLQASYVDPDQSGTVIGVEEEFGFSVDYTWNERLELSAAAAFNGAGIDGNDIYFLGARYAVMDNARIGLNFVDAGDEEDGYDGKTIALYGDYTLADGRTNLEAYIANNDRDSNETDNAFGIGVNYDLGGARLGASLQRDYAENVTADFGVRFEF [W74C] | 82.4 °C | -3.8 °C

Variants of: B4
Details: Kitasatospora aureofaciens; pH 7; 25 °C; Thermal; CD; MOPS 30 mM; structure 1RGG; whole UniProt chain shown

Row | Variant | ddG of mutation (higher = less stable)
10 | DVSGTVCLSALPPEATDTLNLIASDGPFPYSQDGVVFQNRKSVLPTQSYGYYHEYTVITPGARTRGTRRIITGEATQEDYYTGDHYATFSLIDQTC | 1.2 kcal/mol
11 | DVSGTVCLSALPPEATKTLNLIASDGPFPYSQDGVVFQNRESVLPTQSYGYYHEYTVITPGARTRGTRRIITGEATQEDYYTGDHYATFSLIDQTC | 1.1 kcal/mol
12 | DVSGTVCLSALPPEATDTLNLIASHGPFPYSQDGVVFQNRESVLPTQSYGYYHEYTVITPGARTRGTRRIITGEATQEDYYTGDHYATFSLIDQTC | -0.9 kcal/mol
13 | DVSGTVCLSALPPEATDTLNLIASDGPFPYSQDGVVFQNRESVLPTQSYGYYHEYTVITPGARTRGTRRIITGKATQEDYYTGDHYATFSLIDQTC | -1.1 kcal/mol
